# T1: activin B (UniProt P09529 293-407)
# T1 sequence (looked up): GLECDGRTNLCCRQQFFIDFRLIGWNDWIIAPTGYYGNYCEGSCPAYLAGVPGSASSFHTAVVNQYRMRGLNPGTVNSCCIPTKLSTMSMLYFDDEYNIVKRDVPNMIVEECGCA
# T2: activin A (UniProt P08476 311-426)
# T2 sequence (looked up): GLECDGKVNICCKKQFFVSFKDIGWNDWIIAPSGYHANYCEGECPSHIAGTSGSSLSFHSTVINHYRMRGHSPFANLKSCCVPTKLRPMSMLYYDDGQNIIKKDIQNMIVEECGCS
# B1: GDF11 (ligand, UniProt O95390 299-407, looked up)
# chain: NLGLDCDEHSSESRCCRYPLTVDFEAFGWDWIIAPKRYKANYCSGQCEYMFMQKYPHTHLVQQANPRGSAGPCCTPTKMSPINMLYFNDKQQIIYGKIPGMVVDRCGCS
# notes: also called BMP11
# Columns and labels:
# GDF11 = molecular target: B1; test: SPR (Biacore)
# activin B = molecular target: T1, activin B; test: SPR (Biacore)
# activin A = molecular target: T2, activin A; test: SPR (Biacore)
# ActRIIA-mFc = molecular target: T3, ActRIIA-mFc (human, UniProt P27037 21-135); test: SPR (Biacore), ligand amine-coupled on CM5 chip, fusion protein loaded in solution
# T3 construct: also called hActRIIA-mFc; not shown: mouse Fc domain
# T3 sequence (P27037 21-135): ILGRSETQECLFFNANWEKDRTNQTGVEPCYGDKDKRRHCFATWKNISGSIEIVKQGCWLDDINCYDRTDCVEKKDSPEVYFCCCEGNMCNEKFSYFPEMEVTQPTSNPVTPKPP
# Procedure: GDF-11 or activin A were immobilized on a Biacore™ CM5 chip using standard amine-coupling procedure. ActRIIA-hFc and ActRIIA-mFc proteins were loaded onto the system, and binding was measured.
Kd (GDF11),Kd (activin B),Kd (activin A),binding result (ActRIIA-mFc),Binder
36 pM,12 pM,16 pM,,"ActRIIB(20-134)-hFc (Fc fusion, also called ActRIIB-hFc; hActRIIB-hFc) GRGEAETRECIYYNANWELERTNQSGLERCEGEQDKRLHCYASWRNSSGTIELVKKGCWLDDFNCYDRQECVATEENPQVYFCCCEGNFCNERFTHLPEAGGPEVTYEPPPTAPTGGGTHTCPPCPAPELLGGPSVFLFPPKPKDTLMISRTPEVTCVVVDVSHEDPEVKFNWYVDGVEVHNAKTKPREEQYNSTYRVVSVLTVLHQDWLNGKEYKCKVSNKALPVPIEKTISKAKGQPREPQVYTLPPSREEMTKNQVSLTCLVKGFYPSDIAVEWESNGQPENNYKTTPPVLDSDGSFFLYSKLTVDKSRWQQGNVFSCSVMHEALHNHYTQKSLSLSPGK"
,,,binds,B1

# Reference: patent US20220089683A1 (ACCELERON PHARMA, published 2022)
